The values that follow come from patent US20250206843A1 (NATIONAL INSTITUTE FOR BIOTECHNOLOGY IN THE NEGEV, published 2025).

Assay [1] concerns the target T1, human epidermal growth factor receptor 2 (HER2), on cells (human, UniProt P04626 23-1255).
T1 construct: whole, on cells; Target of the flow cytometry and imaging experiments (HEK 293 cells expressing HER2; SkBr3 cells); also called ErbB2; HER2 receptor
The experiment in a line: flow cytometry on cells expressing HER2. In general terms: Flow cytometry measures light scatter and fluorescence of single cells or particles in a stream.

Assay [2] deals with T2, human HER3, on cells (human, UniProt P21860 20-1342).
T2 construct: whole, on cells; also called ErbB3
T2 sequence (P21860 20-1342): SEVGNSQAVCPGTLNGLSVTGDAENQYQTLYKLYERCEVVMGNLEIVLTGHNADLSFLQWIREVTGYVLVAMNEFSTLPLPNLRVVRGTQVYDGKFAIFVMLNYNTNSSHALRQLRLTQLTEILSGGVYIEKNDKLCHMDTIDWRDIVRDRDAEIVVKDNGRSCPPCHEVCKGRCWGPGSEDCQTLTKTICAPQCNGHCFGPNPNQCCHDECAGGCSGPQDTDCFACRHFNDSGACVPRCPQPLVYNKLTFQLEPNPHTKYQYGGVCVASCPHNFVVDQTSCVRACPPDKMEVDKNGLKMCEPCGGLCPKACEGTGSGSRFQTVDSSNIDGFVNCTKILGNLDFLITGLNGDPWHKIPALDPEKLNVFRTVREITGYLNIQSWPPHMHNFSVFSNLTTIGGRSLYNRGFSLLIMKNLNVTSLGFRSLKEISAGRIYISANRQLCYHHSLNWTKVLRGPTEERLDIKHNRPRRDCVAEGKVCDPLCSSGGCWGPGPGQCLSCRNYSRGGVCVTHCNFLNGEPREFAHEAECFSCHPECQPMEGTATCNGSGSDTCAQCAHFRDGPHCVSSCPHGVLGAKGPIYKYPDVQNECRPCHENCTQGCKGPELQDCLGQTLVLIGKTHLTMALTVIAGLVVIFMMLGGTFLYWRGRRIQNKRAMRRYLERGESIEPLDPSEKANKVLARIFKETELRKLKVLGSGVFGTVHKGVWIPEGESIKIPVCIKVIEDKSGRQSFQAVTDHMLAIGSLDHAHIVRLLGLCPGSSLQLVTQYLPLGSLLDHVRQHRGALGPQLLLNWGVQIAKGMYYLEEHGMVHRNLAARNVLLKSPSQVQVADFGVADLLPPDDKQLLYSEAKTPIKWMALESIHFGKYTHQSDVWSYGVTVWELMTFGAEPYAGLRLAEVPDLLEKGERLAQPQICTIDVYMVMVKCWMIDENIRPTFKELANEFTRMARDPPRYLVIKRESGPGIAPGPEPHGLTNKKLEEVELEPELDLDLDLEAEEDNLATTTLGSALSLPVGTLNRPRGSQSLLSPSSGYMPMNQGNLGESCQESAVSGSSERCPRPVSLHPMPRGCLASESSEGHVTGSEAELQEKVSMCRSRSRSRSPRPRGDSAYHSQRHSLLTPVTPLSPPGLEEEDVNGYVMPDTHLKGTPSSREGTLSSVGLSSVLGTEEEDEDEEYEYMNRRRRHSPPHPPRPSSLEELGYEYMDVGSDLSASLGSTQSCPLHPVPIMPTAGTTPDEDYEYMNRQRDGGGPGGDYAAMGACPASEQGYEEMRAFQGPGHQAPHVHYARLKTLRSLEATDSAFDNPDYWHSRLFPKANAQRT
Kind of assay: flow cytometry on cells expressing HER3.

Assay [3] deals with T3, HER2 and HER3 co-expressed on cells (HER2/3) (human, UniProt P04626 23-1255; P21860 20-1342).
T3 construct: whole, on cells; Dubca camel fibroblasts in the periplasmic ELISA screen; also called HER2/HER3
Kind of assay: flow cytometry on cells co-expressing HER2 and HER3.

For assay [4], the target named is T2, human HER3, on cells. The experiment in a line: flow cytometry on HEK 293 cells expressing HER3, anti-VHH-488 detection, n=3.
In assay [5] the target is T4, human HER2-His extracellular-domain protein (human, UniProt P04626 23-652).
T4 construct: extracellular domain; Bought protein; also called recombinant HER2; not shown: His tag
The experiment in a line: SPR, Biacore T200; HER2-His ECD immobilized, Nb46 as analyte; HER2 immobilized, Nb46 as analyte. The procedure:
(§1) SPR binding assay—The affinity of Nbs to HER2 or HER3 was determined in two ways by using surface plasmon resonance (SPR) spectroscopy. SPR measurements were performed on a Biacore T200 instrument. In one layout, purified Nb38 (10 μg/ml) and Nb46 (20 μg/ml) were immobilized on a CM5 chip using an amine coupling kit (GE Healthcare, Chicago, IL). The analytes, human HER2-His or HER3-His extracellular-domain proteins (R&D systems, Minneapolis, MN) dissolved in PBST (PBS supplemented with 0.05% Tween-20 v/v), were flown at 30 μl/min, and the chip was regenerated using 2 mM NaOH. In a second layout, the purified human HER2-His or HER3-His extracellular-domain proteins, at 10 μg/ml, were immobilized on a CM5 chip). The analytes, NB46 and NB38 (and NB7 as a negative control), were flown at 30 μl/min in PBST, and the chip was regenerated using 20 mM glycine. Binding was allowed for 180 s and dissociation for 600 s. Curves were fitted using Biacore's evaluation software using a 1:1 ligand:analyte binding model to retrieve association rate constants (ka), dissociation rate constants (kd), and equilibrium dissociation constants (KD, a measurement of affinity).
A general note: SPR reads the build-up and loss of mass on a sensor chip optically.

The target in assay [6] is T4, human HER2-His extracellular-domain …. The experiment in a line: SPR, Biacore T200; average of the two orientations. The protocol: as §1
The target is the same in assay [7]. The experiment in a line: SPR, Biacore T200; Nb46 immobilized, HER2-His ECD as analyte; Nb46 immobilized, HER2 as analyte. The protocol:
as §1

Assay [8] addresses T3, HER2 and HER3 co-expressed on cells …. Kind of assay: flow cytometry on HEK 293 cells expressing HER2 and HER3, anti-VHH-488 detection, n=3. The procedure:
(§2) FIGS. 6A-6D. Nb46 binding to HER2 cell-receptors by FACS analysis. […] The fluorescent signal was subtracted from that of cells incubated with the antibody alone and normalized relative to the highest signal (FIG. 6B), n=3. FIG. 6C—Affinity binding of NB46 with SkBr3 cells conducted with and without 1.8 mM Neuregulin-1 (NRG) following 1 hour incubation. Data was fitted with a sigmoidal curve in Excel (dashed lines), n=3.

Assay [9] deals with T1, human epidermal growth factor receptor …. The experiment in a line: flow cytometry on HEK 293 cells expressing HER2, anti-VHH-488 detection, n=3. The procedure:
as §2

Assay [10] addresses T5, human HER3-His extracellular-domain protein (human, UniProt P21860 20-643).
T5 construct: extracellular domain; Bought protein; not shown: His tag
The experiment in a line: SPR, Biacore T200, both orientations. The procedure: as §1

In assay [11] the target is T4, human HER2-His extracellular-domain …. The experiment in a line: SPR, Biacore T200; HER2 immobilized (ligand), Nb46 as analyte. The protocol:
as §1

Assay [12] concerns the target T3, HER2 and HER3 co-expressed on cells …. Kind of assay: flow cytometry on HEK 293 cells expressing HER2 and HER3, anti-VHH-488 detection, signal normalised to the highest signal, n=3. The procedure: as §2
Assay [13] addresses T1, human epidermal growth factor receptor …. The experiment in a line: flow cytometry on SkBr3 cells in the presence of Neuregulin-1 (NRG; the legend prints 1.8 mM), anti-VHH-488 detection, n=3. The protocol:
as §2
(§3) Nb46 binding of HER2+ cancer cells—SkBr3 cells were grown to 70-90% confluency in T-75 flasks overnight. The cells were detached by aspirating the medium and washing cells with 10 mL hot PBS before pipetting 5 mL of non-enzymatic cell dissociation solution (Biological Industries, Beit Haemek, Israel) and incubating for 5 minutes at 37° C. […] The cells were Incubated for 1 h at 4° C. on a tubes rotator after which the cells were washed off of unbound Nb; cells were centrifuged at 350 g for 5 minutes, supernatant discarded, and cells resuspend in 900 μL of PBS-FBS, repeatedly for 3 times. After the 3rd centrifugation, the cells were resuspended in 300 μL PBS-FBS containing iFluor488-conjugated anti-camelid VHH (1:1000, Genescript, NJ, USA), and incubated for additional 1 h at 4° C. on a tubes rotator, in the dark. […]

Assay [14] has the same target. Kind of assay: flow cytometry on HEK 293 cells expressing HER2, anti-VHH-488 detection, signal normalised to the highest signal, n=3. The protocol:
as §2

For assay [15], the target named is T4, human HER2-His extracellular-domain …. The experiment in a line: SPR, Biacore T200; Nb46 immobilized (ligand), HER2 as analyte. The procedure: as §1
Assay [16] addresses T1, human epidermal growth factor receptor …. Kind of assay: flow cytometry on SkBr3 cells without Neuregulin-1, anti-VHH-488 detection, n=3. The procedure: as §2, §3
The target is the same in assay [17]. Kind of assay: flow cytometry titration on SkBr3 HER2+ breast cancer cells. The protocol: as §2, §3
The target of assay [18] is T4, human HER2-His extracellular-domain …. The experiment in a line: SPR, Biacore T200; average of the two orientations; average of the two orientations. The procedure:
as §1

For assay [19], the target named is T1, human epidermal growth factor receptor …. The experiment in a line: flow cytometry on SkBr3 cells, Nb46-AF647 detected with secondary anti-VHH-488 antibody. The procedure: as §2, §3

T5 sequence (P21860 20-643): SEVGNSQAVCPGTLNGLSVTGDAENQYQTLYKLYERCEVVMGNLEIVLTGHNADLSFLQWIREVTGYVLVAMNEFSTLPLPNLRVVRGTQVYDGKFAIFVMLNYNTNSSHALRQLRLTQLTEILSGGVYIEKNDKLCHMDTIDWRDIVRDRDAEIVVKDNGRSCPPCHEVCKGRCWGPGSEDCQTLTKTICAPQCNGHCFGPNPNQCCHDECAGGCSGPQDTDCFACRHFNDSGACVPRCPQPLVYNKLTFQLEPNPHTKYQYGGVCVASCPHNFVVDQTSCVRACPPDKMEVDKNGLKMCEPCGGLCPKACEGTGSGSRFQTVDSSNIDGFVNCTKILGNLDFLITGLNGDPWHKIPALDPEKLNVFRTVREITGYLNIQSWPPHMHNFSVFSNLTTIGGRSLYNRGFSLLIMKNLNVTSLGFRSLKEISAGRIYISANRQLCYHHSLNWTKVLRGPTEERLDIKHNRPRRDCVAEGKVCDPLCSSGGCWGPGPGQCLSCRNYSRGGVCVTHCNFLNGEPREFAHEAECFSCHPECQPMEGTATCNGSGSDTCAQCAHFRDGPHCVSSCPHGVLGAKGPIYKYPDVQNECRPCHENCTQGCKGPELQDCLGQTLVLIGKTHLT

B1: Nb38 (VHH)
VHH: QVQLQESGGGSVQAGGSLKLSCVASGFTRSMGWARQAPGKEREGVVCINNYNIGSGKWYADSVKGRFTISRDNDKNTVSLQMNSLKPEDTAIYYCAASPLYLCDNSSWFAAGFAAGSHVWGQGTQVTVSS
notes: Camel VHH expressed from pMECS (C-terminal HA and 6xHis tags) and purified on Ni-NTA; also called N38
For B1, the binding result was “no binding” in [1]; “no binding” with human HER3, on cells [2]; “no binding” in [3].

B2: Nb46 (VHH)
VHH: QVQLQESGGGSVQAGGSLRLSCVVSGYFYYDHYYVAWFRQAPGKEREGVALINGRDSDTYYADSVKGRFTISQDSAKNTVYLQMNSLKPEDTAIYYCAANPGEAFTVLPPRVFRNWGQGTQVTVSS
notes: also called N46
What is called Kd is the concentration at which binding is half-saturated. Higher therefore signals a looser complex. The koff is the rate constant with which the complex falls apart. Low values mean a long-lived complex, high ones a short-lived complex. The term kon denotes the second-order rate constant of association. A higher kon goes with fast association. One may read the EC50 (read off the curve) as the midpoint of the concentration-response curve. Take B2: the binding result in the assay with human HER3, on cells [4] is “no binding (tested: 25 nM)”; in assay [10] it was “no binding”. Also, the dissociation constant Kd in assay [5] amounted to 0.24 nM; in [7], 0.17 nM; in assay [17], 0.8 nM; in assay [18], 0.21 nM. In addition, the figures for the koff in [6], in assay [11] and in assay [15] were 0.00187 s⁻¹, 0.00154 s⁻¹ and 0.00221 s⁻¹, respectively. Also, the kon came to 9.42e+06 M⁻¹ s⁻¹ in assay [6], 6.26e+06 M⁻¹ s⁻¹ in assay [11] and 1.26e+07 M⁻¹ s⁻¹ in [15]. The “EC50 (read off the curve)” value is ~0.9 nM in assay [8]; ~0.8 nM in assay [9]; ~0.8 nM in [12]; ~0.8 nM in assay [13]; ~0.8 nM in [14]; ~0.9 nM in [16].

B3: Nb46-AF647 (VHH)
VHH: QVQLQESGGGSVQAGGSLRLSCVVSGYFYYDHYYVAWFRQAPGKEREGVALINGRDSDTYYADSVKGRFTISQDSAKNTVYLQMNSLKPEDTAIYYCAANPGEAFTVLPPRVFRNWGQGTQVTVSS
modifications: Alexa Fluor 647 (NHS ester), approximately 1 mole dye/mole NB; labelled residue not stated
notes: also called N46-Af647
Take B3: the binding result in assay [19] is given as “binds”.
